Data as given in article PMC3458572.
Read-outs that look alike come from different tables or passages of the source.

Tests used:
Test in all cases: immunodepletion
[1] = target: Xenopus laevis FANCI, extract-endogenous (Xenopus laevis (endogenous in egg extract)) (UniProt D2JYR7)
[2] = target: Xenopus laevis FANCD2, extract-endogenous, non-ubiquitinated (Xenopus laevis (endogenous in egg extract))
[3] = target: Xenopus laevis FANCD2, extract-endogenous, non-ubiquitinated (Xenopus laevis (endogenous in egg extract)); remark: listed apart in the source

Row | Substance | percent co-depleted [1] [%] | percent co-depleted [2] [%] | percent co-depleted [3] [%]
1 | Xenopus laevis FANCD2, extract-endogenous, non-ubiquitinated (natural protein) | 80 |  | 
2 | Xenopus laevis FANCI, extract-endogenous (from UniProt D2JYR7 1-1337) (natural protein) |  | 80 | 80
